Laboratory results published in patent US6495314B1, “Process for characterizing proteins” (The Scripps Research Institute, priority 1995, dated 2002).
Entries after “also recorded” stand apart in the source; their conditions may differ.

Target: T1, C3G-peptide (Homo sapiens, UniProt Q13905)
T1 construct: made in house; host or cells: chemical synthesis
Assay: not given
Details: recombinant Crk-N; read-out: KD for binding the C3G-peptide in solution; cited from earlier work

Compound	Kd
recombinant Crk-N: recombinantly derived cCrk SH3 domain reported by Wu et al. Structure 1995	1900 nM

Target: T2, C3G-derived synthetic peptide (Homo sapiens, UniProt Q13905)
T2 construct: made in house; host or cells: chemical synthesis on 4-methyl benzhydrylamine resin
Assay: C3G-derived synthetic peptide affinity column binding with MALDI readout
Details: Gly-[COS]-βAla analogue unit; 19-member array, residues 146-165 of c-Crk SH3 domain (Example 3)
Protocol: An affinity column carrying a synthetic C3G derived peptide was prepared by reaction of the cysteine side chain of Acetyl-CWAcp-[…].amide (SEQ NO ID NO 14) with an iodoacetylated agarose matrix. The linker Acetyl-CWAcp- was designed to combine a reactive sulfhydryl on the Cys sidechain with a spectroscopic tag in the Trp residue, and to introduce a flexible spacer region between the support and the peptide ligand in the form of ε-aminocaproic acid. The amount of peptide on the column, was determined as 5 μmol/mL of the swollen agarose matrix from the absorbance at 280 nm of the peptide solution before and after reaction with the column.
The column was then washed with 0.5 M NaCl buffer to remove nonspecific binding proteins from the column. Specifically bound protein analogues were then eluted with 1 M hydroxylamine bufffer. Amounts of eluted peptide were monitored by UV absorbance at 280 nm. This procedure was used for both the C3G peptide column and for the control column loaded with Ac-C-AcpYGGFL.amide. The hydroxylamine cleavage of the thioester bond results in the elution of peptide fragments corresponding to the proteins which were able to bind to the affinity column under these conditions. Specific binding was found only for the C3G peptide column.
The composition of the parent array of SH3 protein analogues, as well as the binding and non-binding fractions obtained from affinity chromatography was determined by chemical cleavage and MALDI MS. First, the parent array of folded protein analogues and the 0.5 M NaCl wash from the affinity chromatography of the array were cleaved separately with hydroxylamine. After a desalting step, MALDI mass spectra were obtained for the peptide fragments generated from the (parent) protein array, the salt wash (non-binding) and for the peptide fragments generated by the hydroxylamine elution of the specifically bound analogues (binding). Nine components were present in the array of protein analogues that was added to the C3G column as one mixture (FIG. 26A). […] Three protein analogues, however, were able to bind to the C3G peptide on the column and were eluted only after cleavage with hydroxylamine (FIG. 26C). One of the protein analogues can be identified in both the wash and elution spectra, indicating intermediate folding and/or binding properties for this analogue.
The C3G-derived synthetic peptide affinity column was prepared by adding 10 mg of lyophilized Ac-CWAcp[…].amide (SEQ ID NO 24) (Acp=ε-amino caproic acid) in 2 mL of 50 mM Tris, 5 mM EDTA, pH 8.0 buffer to Sulfolink™ resin (Pierce), equilibrated in the same buffer, for 1 hour while shaking. Unreacted iodoalkyl groups on the resin were then blocked by treatment with 50 mM cystamine, 50 mM Tris, 5 mM EDTA, pH 8.0 buffer for 1 hour. The loading of the column was determined by UV absorbance of the unreacted peptide solution and was approximately 5 μmol/mL. A similar procedure was used to attach the control peptide Ac-CAcpYGGFL.amide (SEQ ID NO 25) to the another batch of the Sulfolink™ support.
Lyophilized crude synthetic polypeptide corresponding to the cCrk SH3 domain (1.5 mg) and BSA (8.5 mg) were dissolved in 20 mM HEPES, 50 mM NaCl, pH 7.3 buffer (400 μL) and loaded on to a 1 mL C3G-derived synthetic peptide affinity column pre-equilibrated with the same buffer. The column was washed with 4 mL each of 50 mM NaCl, 100 mM NaCl, 200 mM NaCl, 300 mM NaCl, 400 mM NaCl, 500 mM NaCl and 1000 mM NaCl, 0.1 M phosphate, pH 7.0 buffer. The column was then washed with 1 M NH2OH 200 mM NH4CO3 pH 6.0 (4 mL) and finally eluted in 6M Gn.HCl 100 mM phosphate pH 6.5 (4 mL). Samples from all column fractions were monitored by absorbance at 280 nm and by HPLC.
Affinity chromatography of the arrays of protein analogues was carried out as follows. […]

Compound	binding to C3G peptide affinity column, active (binding) pool
L^151P^152: c-Crk SH3 domain analogue, dipeptide L151P152 replaced by Gly-[COS]-βAla	displayed appreciable binding
I^161R^162: c-Crk SH3 domain analogue, dipeptide I161R162 replaced by Gly-[COS]-βAla	displayed appreciable binding; also recorded: without significant loss of binding activity
D^163K^164: c-Crk SH3 domain analogue, dipeptide D163K164 replaced by Gly-[COS]-βAla	displayed appreciable binding; also recorded: without significant loss of binding activity
R^162D^163: c-Crk SH3 domain analogue, dipeptide R162D163 replaced by Gly-[COS]-βAla	displayed appreciable binding; also recorded: without significant loss of binding activity
E^148E^149: c-Crk SH3 domain analogue, dipeptide E148E149 replaced by Gly-[COS]-βAla	displayed appreciable binding
K^164P^165: c-Crk SH3 domain analogue, dipeptide K164P165 replaced by Gly-[COS]-βAla	displayed appreciable binding; also recorded: without significant loss of binding activity
N^146D^147: c-Crk SH3 domain analogue, dipeptide N146D147 replaced by Gly-[COS]-βAla	displayed appreciable binding
D^147E^148: c-Crk SH3 domain analogue, dipeptide D147E148 replaced by Gly-[COS]-βAla	displayed appreciable binding

Target: T1, C3G-peptide
Assay: Binding of Crk-N to the C3G-peptide in solution
Details: purified synthetic Crk-N
Source text: FIG. 3 illustrates preliminary iterative signature analysis data on residues 156-165 of the peptide Crk-N. a) Represents a comparison of the elution profiles obtained for the protein family using a C3G-peptide agarose column and a Leucine-Enkephalin agarose column (control). […] Single letters refer to amino acid pairs substituted with the -Gly-SCH2CH2CO— marker. d) Comparison of the MALDI MS spectra of the ammonium acetate wash and the entire 9 component synthetic Crk-N family cleaved with ammonium acetate. In both cases the N-terminal peptide ladder is observed at a much higher intensity than the equimolar C-terminal peptide ladder.
The folded protein was structurally characterized by NMR and crystallization (The folded protein was characterized by two dimensional NOESY 1H NMR spectroscopy. In addition, the synthetic protein solution used for NMR analysis spontaneously formed crystals upon storage at 4° C. These crystals diffracted to >2.3 Å allowing for the solution by molecular replacement. Refinement of the structure is in progress). The resulting synthetic protein domain was then assayed for its affinity for two different proline-rich peptides. […] This change in solvent exposure leads to an increase in the fluorescence intensity of the tryptophan sidechain which can be monitored as a function of increasing ligand concentration (Feng et al. Science 1994.266, 1241-1245). […]

Compound	Kd
CC[C@H](C)[C@H](NC(=O)[C@H](CC(=O)O)NC(=O)CNC(=O)[C@H](CCCCN)NC(=O)[C@H](CCCCN)NC(=O)[C@H](Cc1ccccc1)NC(=O)[C@@H]1CCCN1C(=O)[C@H](CC(C)C)NC(=O)[C@H](CC(=O)O)NC(=O)[C@H](CCC(=O)O)NC(=O)[C@H](CCC(=O)O)NC(=O)[C@H](CC(=O)O)NC(=O)[C@H](CC(N)=O)NC(=O)CNC(=O)[C@H](CC(N)=O)NC(=O)[C@H](Cc1ccccc1)NC(=O)[C@H](CC(=O)O)NC(=O)[C@H](Cc1ccccc1)NC(=O)[C@H](CC(C)C)NC(=O)[C@H](C)NC(=O)[C@H](CCCNC(=N)N)NC(=O)[C@@H](NC(=O)[C@H](Cc1ccc(O)cc1)NC(=O)[C@H](CCC(=O)O)NC(=O)[C@H](C)N)C(C)C)C(=O)N[C@@H](CC(C)C)C(=O)N[C@@H](CCCNC(=N)N)C(=O)N[C@H](C(=O)N[C@@H](CCCNC(=N)N)C(=O)N[C@@H](CC(=O)O)C(=O)N[C@@H](CCCCN)C(=O)N1CCC[C@H]1C(=O)N[C@@H](CCC(=O)O)C(=O)N[C@@H](CCC(=O)O)C(=O)N[C@@H](CCC(N)=O)C(=O)N[C@@H](Cc1c[nH]c2ccccc12)C(=O)N[C@@H](Cc1c[nH]c2ccccc12)C(=O)N[C@@H](CC(N)=O)C(=O)N[C@@H](C)C(=O)N[C@@H](CCC(=O)O)C(=O)N[C@@H](CC(=O)O)C(=O)N[C@@H](CO)C(=O)N[C@@H](CCC(=O)O)C(=O)NCC(=O)N[C@@H](CCCCN)C(=O)N[C@@H](CCCNC(=N)N)C(=O)NCC(=O)N[C@@H](CCSC)C(=O)N[C@H](C(=O)N1CCC[C@H]1C(=O)N[C@H](C(=O)N1CCC[C@H]1C(=O)N[C@@H](Cc1ccc(O)cc1)C(=O)N[C@H](C(=O)N[C@@H](CCC(=O)O)C(=O)N[C@@H](CCCCN)C(=O)N[C@@H](Cc1ccc(O)cc1)C(=O)N[C@@H](CCCNC(=N)N)C(=O)O)C(C)C)C(C)C)[C@@H](C)CC)[C@@H](C)CC [synthetic Crk-N]	2300 nM
